The text below walks through data of PMC4352398.

The target in assay [1] is dominant negative Flag-Rab4 variant (Drosophila). Description: co-IP.
The target in assay [2] is constitutively active Flag-Rab4 variant (Drosophila). Description: co-IP.

B1: Myc-RhoGAP68F (natural protein)
chain: MDAHSRFAPRLPGPAINPIVDNSDEPQPSLSDLHDFEPKLEFDDTELLAPSPLEKDVMVGDFVLAEDPELEPEEDVNPLEDDFEDQLREQSENFQTPRNKCDFLGTDKQGRHIFGIYASRFPEKSQLEGFVREIIKEIEPFVENDYILVYFHQGLKEDNKPSAQFLWNSYKELDRNFRKNLKTLYVVHPTWFIRVIWNFFSPFISDKFRKKLVYISSLDELRQALGLNKLKLPDNICDLDDKLNPSRKPSTPPPSSNINASRQQQHKMATTHQFGVPLKFIVMNSPCLNSIPPIVRKCVDSLSITGVIDTEGIFRRSGNHSEIMALKERVNRGEDVDLKSVNVHVIAGLLKSFLRDLAEPLLTFELYEDVTGFLDWPKEERSRNVTQLIREKLPEENYELFKYIVEFLVRVMDCEDLNKMTSSNLAIVFGPNFLWSRSTSTSLEEIAPINAFVDFVLQNHKDIYLIDVNQRTVSVD
In assay [1], B1 displayed a fold weaker association than with wild type Flag-Rab4 of 2.88 fold. Also, the fold stronger association than with wild type Flag-Rab4 in assay [2] stood at 3.26 fold.
